Tests used:
[1] = biological target: large-conductance calcium-activated potassium (BKCa) channel alpha subunit (rat (endogenous in mesenteric arteries)) (UniProt Q62976)
[2] = biological target: large-conductance calcium-activated potassium (BKCa) channel alpha subunit (rat (endogenous in mesenteric arteries)) (UniProt Q62976); remark: listed apart in the source

Sequence of inositol 1,4,5-trisphosphate receptor 1, P29994 1-2750 (natural protein) (P29994 whole entry): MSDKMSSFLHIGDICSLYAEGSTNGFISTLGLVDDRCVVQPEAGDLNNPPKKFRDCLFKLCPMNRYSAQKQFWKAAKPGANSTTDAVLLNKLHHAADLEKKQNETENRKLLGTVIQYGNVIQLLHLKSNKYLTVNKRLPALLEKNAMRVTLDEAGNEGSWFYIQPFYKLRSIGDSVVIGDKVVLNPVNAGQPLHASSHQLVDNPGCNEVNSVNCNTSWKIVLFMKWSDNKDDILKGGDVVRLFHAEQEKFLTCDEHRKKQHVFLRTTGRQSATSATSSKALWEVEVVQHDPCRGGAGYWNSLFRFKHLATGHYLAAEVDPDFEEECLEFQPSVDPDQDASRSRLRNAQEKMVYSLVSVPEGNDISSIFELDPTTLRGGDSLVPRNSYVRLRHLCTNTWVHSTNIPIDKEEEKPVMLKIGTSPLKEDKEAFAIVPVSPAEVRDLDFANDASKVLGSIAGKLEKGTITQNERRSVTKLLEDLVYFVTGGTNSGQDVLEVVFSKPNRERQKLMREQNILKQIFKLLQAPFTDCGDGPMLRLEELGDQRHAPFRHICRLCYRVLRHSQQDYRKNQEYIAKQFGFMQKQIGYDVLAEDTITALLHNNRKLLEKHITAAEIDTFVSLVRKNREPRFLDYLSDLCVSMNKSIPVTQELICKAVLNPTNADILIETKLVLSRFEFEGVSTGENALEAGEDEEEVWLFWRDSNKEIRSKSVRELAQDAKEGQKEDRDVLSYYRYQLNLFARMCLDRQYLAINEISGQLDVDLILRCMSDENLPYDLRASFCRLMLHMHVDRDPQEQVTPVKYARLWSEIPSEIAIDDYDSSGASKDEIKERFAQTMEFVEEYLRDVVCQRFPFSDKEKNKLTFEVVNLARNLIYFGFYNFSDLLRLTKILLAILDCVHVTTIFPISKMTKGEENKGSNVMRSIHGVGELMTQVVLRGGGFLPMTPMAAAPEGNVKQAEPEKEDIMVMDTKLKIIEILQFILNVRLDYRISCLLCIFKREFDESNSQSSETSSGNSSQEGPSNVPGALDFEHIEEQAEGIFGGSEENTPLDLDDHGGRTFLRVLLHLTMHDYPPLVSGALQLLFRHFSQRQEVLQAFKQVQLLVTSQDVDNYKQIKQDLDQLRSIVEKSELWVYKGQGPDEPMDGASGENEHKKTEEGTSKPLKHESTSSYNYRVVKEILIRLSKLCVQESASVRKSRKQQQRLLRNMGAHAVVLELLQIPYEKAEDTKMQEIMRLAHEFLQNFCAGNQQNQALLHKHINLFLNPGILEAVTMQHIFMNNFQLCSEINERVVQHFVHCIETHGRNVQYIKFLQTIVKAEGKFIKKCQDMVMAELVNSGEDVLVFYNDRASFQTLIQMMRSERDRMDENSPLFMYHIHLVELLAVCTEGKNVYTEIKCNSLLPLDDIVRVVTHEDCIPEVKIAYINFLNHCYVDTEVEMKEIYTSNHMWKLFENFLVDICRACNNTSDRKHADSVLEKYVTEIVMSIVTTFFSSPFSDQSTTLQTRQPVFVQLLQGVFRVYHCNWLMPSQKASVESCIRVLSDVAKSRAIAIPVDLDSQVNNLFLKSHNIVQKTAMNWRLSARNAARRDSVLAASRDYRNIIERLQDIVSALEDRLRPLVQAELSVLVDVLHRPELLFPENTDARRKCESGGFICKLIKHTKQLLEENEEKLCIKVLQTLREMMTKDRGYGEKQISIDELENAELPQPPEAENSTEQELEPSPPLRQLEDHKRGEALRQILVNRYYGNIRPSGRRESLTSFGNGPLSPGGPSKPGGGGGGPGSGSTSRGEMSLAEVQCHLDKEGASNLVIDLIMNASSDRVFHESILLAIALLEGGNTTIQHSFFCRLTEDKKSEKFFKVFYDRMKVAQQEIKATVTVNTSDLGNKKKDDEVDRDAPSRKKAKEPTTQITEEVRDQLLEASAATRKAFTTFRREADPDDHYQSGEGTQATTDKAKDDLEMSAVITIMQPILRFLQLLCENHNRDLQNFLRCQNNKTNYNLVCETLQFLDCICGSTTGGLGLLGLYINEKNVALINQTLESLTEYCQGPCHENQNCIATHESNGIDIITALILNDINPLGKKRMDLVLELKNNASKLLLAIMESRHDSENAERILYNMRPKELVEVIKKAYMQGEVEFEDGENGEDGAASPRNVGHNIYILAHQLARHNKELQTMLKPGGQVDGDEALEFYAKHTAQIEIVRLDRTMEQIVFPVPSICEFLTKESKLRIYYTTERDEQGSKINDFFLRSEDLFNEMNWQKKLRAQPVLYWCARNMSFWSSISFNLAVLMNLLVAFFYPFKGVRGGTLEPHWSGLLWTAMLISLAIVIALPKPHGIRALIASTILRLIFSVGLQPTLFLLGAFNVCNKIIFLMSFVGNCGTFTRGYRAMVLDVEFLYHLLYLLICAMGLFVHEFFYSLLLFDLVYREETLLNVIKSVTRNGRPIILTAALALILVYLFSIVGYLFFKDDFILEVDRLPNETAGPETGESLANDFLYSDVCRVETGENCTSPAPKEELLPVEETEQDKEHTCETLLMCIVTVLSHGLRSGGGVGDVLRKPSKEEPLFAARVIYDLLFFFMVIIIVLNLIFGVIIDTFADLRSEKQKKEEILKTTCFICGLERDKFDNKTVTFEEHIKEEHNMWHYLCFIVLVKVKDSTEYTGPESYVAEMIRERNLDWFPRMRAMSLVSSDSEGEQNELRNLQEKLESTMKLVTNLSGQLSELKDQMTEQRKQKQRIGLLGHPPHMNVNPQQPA
Sequence of large-conductance calcium-activated potassium (BKCa) channel alpha subunit (rat (endogenous in mesenteric arteries)) (Q62976 whole entry): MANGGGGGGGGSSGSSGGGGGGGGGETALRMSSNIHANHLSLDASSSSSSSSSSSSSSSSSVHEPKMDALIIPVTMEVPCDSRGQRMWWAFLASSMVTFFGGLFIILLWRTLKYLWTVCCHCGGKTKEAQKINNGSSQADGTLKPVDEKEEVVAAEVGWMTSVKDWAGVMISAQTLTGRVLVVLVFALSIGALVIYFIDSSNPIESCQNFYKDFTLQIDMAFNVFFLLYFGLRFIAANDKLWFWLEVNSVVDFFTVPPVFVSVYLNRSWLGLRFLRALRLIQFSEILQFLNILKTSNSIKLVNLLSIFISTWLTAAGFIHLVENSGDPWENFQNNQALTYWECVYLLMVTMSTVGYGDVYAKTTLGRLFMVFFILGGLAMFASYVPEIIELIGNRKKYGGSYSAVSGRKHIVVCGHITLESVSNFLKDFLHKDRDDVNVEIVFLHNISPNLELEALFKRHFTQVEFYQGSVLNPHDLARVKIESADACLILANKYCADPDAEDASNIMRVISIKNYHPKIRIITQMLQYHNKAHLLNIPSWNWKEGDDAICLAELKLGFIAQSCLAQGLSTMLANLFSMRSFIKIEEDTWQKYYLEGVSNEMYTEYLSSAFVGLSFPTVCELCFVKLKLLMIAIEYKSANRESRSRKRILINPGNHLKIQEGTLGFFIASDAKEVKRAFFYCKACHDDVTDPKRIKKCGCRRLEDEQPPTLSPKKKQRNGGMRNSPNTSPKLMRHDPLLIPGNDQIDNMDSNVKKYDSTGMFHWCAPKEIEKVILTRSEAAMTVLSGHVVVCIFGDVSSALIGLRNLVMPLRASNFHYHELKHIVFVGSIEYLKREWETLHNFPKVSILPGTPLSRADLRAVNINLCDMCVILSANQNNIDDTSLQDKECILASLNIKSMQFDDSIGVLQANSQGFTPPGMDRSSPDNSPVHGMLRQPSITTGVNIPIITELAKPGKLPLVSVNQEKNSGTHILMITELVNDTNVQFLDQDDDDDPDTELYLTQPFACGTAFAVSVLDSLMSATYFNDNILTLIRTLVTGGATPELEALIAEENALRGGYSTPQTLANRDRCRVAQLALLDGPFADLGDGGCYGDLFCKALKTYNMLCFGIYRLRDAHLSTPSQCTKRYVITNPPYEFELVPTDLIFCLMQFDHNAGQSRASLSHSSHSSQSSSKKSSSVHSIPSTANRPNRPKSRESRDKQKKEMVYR

whole-cell BKCa current density at +60 mV in mesenteric VSMCs of WKY rats before and after the IP3R agonist Adenophostin A [1]: 142 pA/pF
whole-cell BKCa current density at +60 mV in mesenteric VSMCs of SHR before and after the IP3R agonist Adenophostin A [2]: 65.6 pA/pF
Substance: inositol 1,4,5-trisphosphate receptor 1, P29994 1-2750 (natural protein)

From publication PMC10341547
